The results in this text go back to publication PMC9241776, “Azole Resistance-Associated Regulatory Motifs within the Promoter of cyp51A in Aspergillus fumigatus”.

The target in this series is T1, AtrR (Zn2Cys6 cluster and coiled-coil) (Aspergillus fumigatus, UniProt Q4WI89 50-160).
T1 sequence: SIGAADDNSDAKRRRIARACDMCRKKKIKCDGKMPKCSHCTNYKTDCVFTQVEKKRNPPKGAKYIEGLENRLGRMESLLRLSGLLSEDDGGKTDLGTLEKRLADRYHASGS
In words: SPR; largely unaffected; SPR as in earlier publications; binding buffer and temperature not in the material (SEC buffer for AtrR and SrbA: 20 mM HEPES, 150 mM NaCl); 1:1 model with mass transport. Conditions: protein: recombinant; tags: N-terminal MBP, removed by TEV; chain copies: 2.

B1: Pcyp51A SrbA* (dsDNA)
DNA 1: TCTAGAATTCCGAAGTCCGGATGTGTGCTGAGCCGAATGAA
DNA 2: TTCATTCGGCTCAGCACACATCCGGACTTCGGAATTCTAGA
As to B1, the binding result was “binds”.
